Test results: patent US20030105278A1 (MERK, published 2003)
Bridges are numbered along the chain shown (N, C = ends). Where no end group is shown, it is not given here.

B1: MCH analog SEQ. ID. NO. 57 (position 10: D-Pro) (peptide)
peptide: RCMLXRVYRPC
modifications: D-Pro at position 10; N-terminal acetyl, C-terminal amide, Cys-Cys disulfide as in SEQ. ID. NO. 7
notes: ID; NO; 7 peptide; MCH position numbering
B2: MCH analog SEQ. ID. NO. 49 (position 10: Nle) (peptide)
peptide: RCMLXRVYRPC
modifications: norleucine at position 10; N-terminal acetyl, C-terminal amide, Cys-Cys disulfide as in SEQ. ID. NO. 7
B3: MCH analog SEQ. ID. NO. 61 (position 10: γ-Abu) (peptide)
peptide: RCMLXRVYRPC
modifications: γ-Abu (gamma-aminobutyric acid) at position 10; N-terminal acetyl, C-terminal amide, Cys-Cys disulfide as in SEQ. ID. NO. 7
B4: MCH analog SEQ. ID. NO. 59 (position 10: D-Lys) (peptide)
peptide: RCMLXRVYRPC
modifications: D-Lys at position 10; N-terminal acetyl, C-terminal amide, Cys-Cys disulfide as in SEQ. ID. NO. 7
B5: MCH analog SEQ. ID. NO. 56 (position 10: D-Nle) (peptide)
peptide: RCMLXRVYRPC
modifications: D-Nle at position 10; N-terminal acetyl, C-terminal amide, Cys-Cys disulfide as in SEQ. ID. NO. 7
B6: MCH analog SEQ. ID. NO. 28 (N-Me-Arg^11) (peptide)
peptide: RCMLGXVYRPC
modifications: N-methyl-arginine at position 11; N-terminal acetyl, C-terminal amide, Cys-Cys disulfide as in SEQ. ID. NO. 7
B7: MCH analog SEQ. ID. NO. 29 (N-Me-Arg^14) (peptide)
peptide: RCMLGRVYXPC
modifications: N-methyl-arginine at position 14; N-terminal acetyl, C-terminal amide, Cys-Cys disulfide as in SEQ. ID. NO. 7
B8: MCH analog SEQ. ID. NO. 30 (Sar^15) (peptide)
peptide: RCMLGRVYRXC
modifications: sarcosine at position 15; N-terminal acetyl, C-terminal amide, Cys-Cys disulfide as in SEQ. ID. NO. 7
B9: MCH analog SEQ. ID. NO. 24 (D-Cys^16) (peptide)
peptide: RCMLGRVYRPX
modifications: D-Cys^16; N-terminal acetyl, C-terminal amide, Cys-Cys disulfide as in SEQ. ID. NO. 7
B10: MCH analog SEQ. ID. NO. 16 (D-Cys^7) (peptide)
peptide: RXMLGRVYRPC
modifications: D-Cys^7; N-terminal acetyl, C-terminal amide, Cys-Cys disulfide as in SEQ. ID. NO. 7
B11: MCH analog SEQ. ID. NO. 66 (position 13: Phe(pF)) (peptide)
peptide: RCMLGRVXRPC
modifications: p-fluoro-phenylalanine at position 13; N-terminal acetyl, C-terminal amide, Cys-Cys disulfide as in SEQ. ID. NO. 7
B12: MCH analog SEQ. ID. NO. 67 (position 13: Phe(pNH2)) (peptide)
peptide: RCMLGRVXRPC
modifications: Phe(pNH2) at position 13; N-terminal acetyl, C-terminal amide, Cys-Cys disulfide as in SEQ. ID. NO. 7
B13: MCH analog SEQ. ID. NO. 68 (position 13: Phe(pCOOH)) (peptide)
peptide: RCMLGRVXRPC
modifications: Phe(pCOOH) at position 13; N-terminal acetyl, C-terminal amide, Cys-Cys disulfide as in SEQ. ID. NO. 7
B14: MCH analog SEQ. ID. NO. 65 (position 13: (2′)Nal) (peptide)
peptide: RCMLGRVXRPC
modifications: (2′)-naphthylalanine at position 13; N-terminal acetyl, C-terminal amide, Cys-Cys disulfide as in SEQ. ID. NO. 7
B15: MCH analog SEQ. ID. NO. 69 (position 13: Cha) (peptide)
peptide: RCMLGRVXRPC
modifications: Cha (cyclohexylalanine) at position 13; N-terminal acetyl, C-terminal amide, Cys-Cys disulfide as in SEQ. ID. NO. 7
B16: MCH analog SEQ. ID. NO. 44 (position 6: Ac-D-Asn) (peptide)
peptide: XCMLGRVYRPC
modifications: Ac-D-Asn at position 6; C-terminal amide, Cys-Cys disulfide as in SEQ. ID. NO. 7
B17: MCH analog SEQ. ID. NO. 32 (position 6: Ac-Nle) (peptide)
peptide: XCMLGRVYRPC
modifications: Ac-Nle (acetyl-norleucine) at position 6; C-terminal amide, Cys-Cys disulfide as in SEQ. ID. NO. 7
B18: MCH analog SEQ. ID. NO. 46 (position 6: Ac-D-Glu) (peptide)
peptide: XCMLGRVYRPC
modifications: Ac-D-Glu at position 6; C-terminal amide, Cys-Cys disulfide as in SEQ. ID. NO. 7
B19: MCH analog SEQ. ID. NO. 43 (position 6: Ac-D-Pro) (peptide)
peptide: XCMLGRVYRPC
modifications: Ac-D-Pro at position 6; C-terminal amide, Cys-Cys disulfide as in SEQ. ID. NO. 7

molecular target: T1, human MCH receptor expressed from the open reading frame cDNA SEQ. ID. NO. 1 in 293-AEQ17 cells (human, UniProt Q99705 1-353); assay: cell-based or functional assay
T1 sequence (Q99705 whole entry): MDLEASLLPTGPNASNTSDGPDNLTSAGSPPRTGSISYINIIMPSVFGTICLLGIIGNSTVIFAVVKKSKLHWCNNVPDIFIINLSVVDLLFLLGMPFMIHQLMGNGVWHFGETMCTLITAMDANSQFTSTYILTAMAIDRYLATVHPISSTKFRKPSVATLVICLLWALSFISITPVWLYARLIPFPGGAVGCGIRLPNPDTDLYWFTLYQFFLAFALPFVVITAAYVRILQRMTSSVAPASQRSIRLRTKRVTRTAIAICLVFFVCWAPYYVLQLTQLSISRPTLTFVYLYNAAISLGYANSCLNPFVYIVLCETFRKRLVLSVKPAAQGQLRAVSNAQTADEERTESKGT

Compared with B1, B2 is higher in Activation %: 90% for the first, 106% for the second.

Compared with B3, B5 is lower in Activation %: 101% for the first, 33% for the second.

Compared with B1, B4 is higher in “EC50” value: 190 nM for the first, over 10000 nM for the second.

molecular target: T1, human MCH receptor expressed from the …; assay: cell-based or functional assay; remark: another data set of the same source

Going from B6 to B8, the Activation % rises from 110% to 113%.

Compared with B7, B8 is lower in “EC50” value: over 1000 nM for the first, 25 nM for the second.

molecular target: T1, human MCH receptor expressed from the …; assay: cell-based or functional assay; remark: another data set of the same source

Compared with B9, B10 is lower in Activation %: 76% for the first, 34% for the second.

molecular target: T2, human MCH receptor (membranes from a stable CHO or HEK-293 cell line) (human, UniProt Q99705 1-353); assay: competition vs [125I]-human MCH (Phe13,Tyr19); human MCH receptor cell membranes (Example 3)
T2 construct: whole, on cells; also called cloned human MCH receptor (CHO clone)
T2 sequence (Q99705 whole entry): as above

B1 showed an IC50 of 1.2 nM.

molecular target: T1, human MCH receptor expressed from the …; assay: cell-based or functional assay; remark: another data set of the same source

Compared with B11, B12 is lower in Activation %: 98% for the first, 88% for the second.

Compared with B14, B15 is lower in Activation %: 105% for the first, 93% for the second.

With B13 the “EC50” value was over 10000 nM.

molecular target: T2, human MCH receptor (membranes from a …); assay: SPA competition vs [125I]-human MCH (Phe13,Tyr19); human MCH receptor cell membranes

First: DFAMLRCMLGRVFRPCWQY (disulfide 7-16 (inferred))
Second: Ac-CMLGRVYRPCWQV (disulfide 1-10 (inferred)) [MCH analog SEQ. ID. NO. 12: Ac-Cys-Met-Leu-Gly-Arg-Val-Tyr-Arg-Pro-Cys-Trp-Gln-Val]
The IC50 of the first is 13-fold lower: 0.5 nM for the first, 6.4 nM for the second.

molecular target: T1, human MCH receptor expressed from the …; assay: cell-based or functional assay; remark: another data set of the same source

First: B16
Second: B17
The Activation % of the first is lower: 94% for the first, 107% for the second.

Compared with B18, B19 is higher in Activation %: 85% for the first, 96% for the second.

molecular target: T1, human MCH receptor expressed from the …; assay: cell-based or functional assay; remark: another data set of the same source

Compared with DFAMLRCMLGRVFRPCWQY (disulfide 7-16 (inferred)), Ac-CMLGRVYRPCWQV (disulfide 1-10 (inferred)) [MCH analog SEQ. ID. NO. 12: Ac-Cys-Met-Leu-Gly-Arg-Val-Tyr-Arg-Pro-Cys-Trp-Gln-Val] is lower in “% Activation at 10 µM” value: 62.2% for the first, 3% for the second.

DFDXLRCXLGRVYRPCWQV (norleucine (Nle) at positions 4 and 8; cyclization (S-S) between the two Cys) was tested, and the “% Activation at 10 µM” value was 65.9%.

Ac-CMLGRVYRPCWQV (disulfide 1-10 (inferred)) [MCH analog SEQ. ID. NO. 12: Ac-Cys-Met-Leu-Gly-Arg-Val-Tyr-Arg-Pro-Cys-Trp-Gln-Val] was tested, and the “EC50” value was 492 nM.
